Test results taken from article doi:10.1101/2022.02.08.479534, “FoxP3 can fold into two distinct dimerization states with divergent functional implications for T cell homeostasis”.

What was measured:
[1] = molecular target: T1, NusA-FoxP2RBR-forkhead (Mus musculus, UniProt P58463 447-588); assay: EMSA; equal to sFKHM; EMSA: 0.2 uM DNA, 20 mM Tris pH 7.5, 150 mM NaCl, 1.5 mM MgCl2, 2 mM DTT, 30 min at 4 C; anti-HA bead DNA pull-down: 20 min at room temperature; the EMSA IR-FKHM4g length is taken as 31 bp; details: protein: recombinant; tags: His6-NusA; blunt
T1 sequence: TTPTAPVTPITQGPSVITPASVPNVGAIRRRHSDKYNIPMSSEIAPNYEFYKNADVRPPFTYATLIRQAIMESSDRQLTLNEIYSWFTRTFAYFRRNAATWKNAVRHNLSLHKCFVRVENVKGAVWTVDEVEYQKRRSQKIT

[2] = molecular target: T2, NusA-FoxP4RBR-forkhead (Mus musculus, UniProt Q9DBY0 418-577); assay: as above; details: protein: recombinant; tags: His6-NusA; blunt
T2 sequence: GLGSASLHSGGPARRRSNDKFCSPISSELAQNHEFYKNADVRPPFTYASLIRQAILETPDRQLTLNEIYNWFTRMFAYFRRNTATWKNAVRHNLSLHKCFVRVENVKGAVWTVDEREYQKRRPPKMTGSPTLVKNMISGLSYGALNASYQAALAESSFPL

[3] = molecular target: T3, FoxP3ZF-CC (Mus musculus, UniProt Q99JB6 188-284); assay: EMSA; up to 4 uM; barely detectable; EMSA: 0.2 uM DNA, 20 mM Tris pH 7.5, 150 mM NaCl, 1.5 mM MgCl2, 2 mM DTT, 30 min at 4 C; anti-HA bead DNA pull-down: 20 min at room temperature; the EMSA IR-FKHM4g length is taken as 31 bp; details: protein: recombinant; blunt
T3 sequence: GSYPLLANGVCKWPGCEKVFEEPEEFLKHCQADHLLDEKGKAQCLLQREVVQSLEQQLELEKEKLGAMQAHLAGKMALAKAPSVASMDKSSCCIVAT

B1: IR-FKHM4g (31bp) (dsDNA)
DNA 1: TTAGGAAAATTTGTTTACTCGAGTAAACAAA
DNA 2: TTTGTTTACTCGAGTAAACAAATTTTCCTAA
binding result [1]: binds
binding result [2]: binds
binding result [3]: no binding
